Experimental data published in article PMC1260013 (BMC Biochemistry, 2005).

Tests used:
M. tb ICD-2 = M. tb ICD-2 (Mycobacterium tuberculosis, UniProt O53611); experiment: biochemical
[1] = system: O=C(O)CC(C(=O)O)C(O)C(=O)O; experiment: purified protein; details: pH 7.5; 25.0 °C
[2] = system: NC(=O)c1ccc[n+]([C@@H]2O[C@H](COP(=O)(O)OP(=O)(O)OC[C@H]3O[C@@H](n4cnc5c(N)ncnc54)[C@H](OP(=O)(O)O)[C@@H]3O)[C@@H](O)[C@H]2O)c1; experiment: purified protein; details: pH 7.5; 25.0 °C; varied: cofactor

Sequence of M. tb ICD-2 (O53611 whole entry): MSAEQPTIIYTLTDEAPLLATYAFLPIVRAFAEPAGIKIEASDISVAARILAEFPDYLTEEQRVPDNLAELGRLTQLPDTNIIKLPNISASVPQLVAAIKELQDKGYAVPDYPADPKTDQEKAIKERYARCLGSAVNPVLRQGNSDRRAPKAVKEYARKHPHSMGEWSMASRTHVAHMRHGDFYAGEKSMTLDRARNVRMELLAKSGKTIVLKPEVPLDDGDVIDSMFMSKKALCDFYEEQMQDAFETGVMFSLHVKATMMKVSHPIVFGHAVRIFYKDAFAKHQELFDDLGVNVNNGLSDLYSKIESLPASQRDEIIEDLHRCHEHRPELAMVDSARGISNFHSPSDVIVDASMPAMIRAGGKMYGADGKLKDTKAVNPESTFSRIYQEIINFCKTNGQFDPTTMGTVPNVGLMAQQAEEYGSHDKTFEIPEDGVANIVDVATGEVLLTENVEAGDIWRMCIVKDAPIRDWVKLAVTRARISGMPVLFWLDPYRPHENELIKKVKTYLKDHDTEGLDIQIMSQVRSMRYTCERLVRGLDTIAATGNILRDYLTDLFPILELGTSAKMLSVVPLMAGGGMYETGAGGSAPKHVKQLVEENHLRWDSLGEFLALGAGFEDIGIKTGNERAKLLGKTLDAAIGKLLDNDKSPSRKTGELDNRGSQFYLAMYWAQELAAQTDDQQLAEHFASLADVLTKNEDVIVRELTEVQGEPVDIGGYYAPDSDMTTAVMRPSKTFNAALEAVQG

Row | Compound | Ki (M. tb ICD-2) [µM] | Km [1] [µM] | Vmax [1] [μM NADPH/min] | Km [2] [µM] | Vmax [2] [μM NADPH/min]
1 | NC(=O)C1=CN([C@@H]2O[C@H](COP(=O)(O)OP(=O)(O)OC[C@H]3O[C@@H](n4cnc5c(N)ncnc54)[C@H](OP(=O)(O)O)[C@@H]3O)[C@@H](O)[C@H]2O)C=CC1 [NADPH] | 4.6 | – | – | – | –
2 | M. tb ICD-1 (Mycobacterium tuberculosis H37Rv) | – | 10 ± 5 | 380 | 125 ± 5 | 400
